From paper PMC3050645

Substrate: [O-][Cl+]O
Experiment: Clark-type O2 electrode, initial rates
Assay type: biochemical, Dechloromonas aromatica (nom. nud.)
Settings: pH 5.2, 4 °C, 100 mM citrate-phosphate

B1: Chlorite dismutase (Cld) (Dechloromonas aromatica RCB) (protein)
chain: MQPMQSMKIERGTILTQPGVFGVFTMFKLRPDWNKVPVAERKGAAEEVKKLIEKHKDNVLVDLYLTRGLETNSDFFFRINAYDLAKAQTFMREFRSTTVGKNADVFETLVGVTKPLNYISKDKSPGLNAGLSSATYSGPAPRYVIVIPVKKNAEWWNMSPEERLKEMEVHTTPTLAYLVNVKRKLYHSTGLDDTDFITYFETDDLTAFNNLMLSLAQVKENKFHVRWGSPTTLGTIHSPEDVIKALAD
- Km: 620 ± 70 µM
- kcat: 20000 ± 6000 s⁻¹
- kcat/Km: 3.2e+07 ± 4e+06 M⁻¹ s⁻¹
